From the supplement of paper PMC10724198
± gives the standard deviation of the averaged measurements.

system: Saccharomyces cerevisiae; experiment: protein stability index of tFT-peptide fusion (C-terminal peptide) (PSI (0-1 scale)); higher = more stable (slower turnover); conditions: genetic background: wild type; temperature: 30 C
Procedure: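 Multiplexed protein stability (MPS) profiling in S. cerevisiae. Random 12-aa peptides (tFT-X12 library) are fused to the C-terminus of a sfGFP-mCherry tandem fluorescent timer, after mCherry and a GGGS linker. Cells are FACS-sorted into 8 mCherry/sfGFP bins and deep-sequenced. The protein stability index (PSI) is the read-weighted bin average, scaled from 0 (unstable) to 1 (stable). Only peptides with >10 reads are reported; cells were grown at 30 °C in SC-His with glucose.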
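Note: PSI is a weighted mean of sequencing reads over stability bins, variants kept only with over 10 reads, mCherry proximal and sfGFP distal, peptide attached via GGGS linker.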

| Sequence | protein stability index |
| --- | --- |
| GEDFRVLVFVRL | 0.556 ± 0.0099 |
| FGVTGLGVGLVW | 0.639 ± 0.0066 |
| ASNRVLRILLPR | 0.683 ± 0.05 |
| GRTKFIPTPSTY | 0.712 ± 0.023 |
| LDPPCPTARLPH | 0.61 ± 0.052 |
| LPLQPSSNLTCL | 0.70856 ± 0.00024 |
| CDCDESYFNPLG | 0.666 ± 0.037 |
| PLHPPLSGPLPP | 0.723 ± 0.021 |
| GRGGLGWWEWDR | 0.7462 ± 0.0067 |
| KRKTKIEQDQRQ | 0.6704 ± 0.0056 |
| GVGLLAHLLIYR | 0.556 ± 0.0086 |
| RSGRSLVGREGG | 0.703 ± 0.059 |
| KKKKKIHIKNKK | 0.707 ± 0.052 |
| PLPFWPPPPRRP | 0.674 ± 0.066 |
| WGDGSGRVWEIS | 0.68 ± 0.03 |
| EGIYLTVGTVDQ | 0.707 ± 0.049 |
| IVLHLAASPTPP | 0.65 ± 0.015 |
| YIGSVCLCVSPV | 0.5999 ± 0.0038 |
| RLSIEVREWGDG | 0.642 ± 0.075 |
| NGCCLVHAETGP | 0.676 ± 0.032 |
| VILGRGGSICKV | 0.795 ± 0.046 |
| VSGEGRGRTTPD | 0.665 ± 0.013 |
| RGGGWGRKVSVG | 0.659 ± 0.095 |
| GSNKWATANKYG | 0.6561 ± 0.0033 |
| KKKKHKNRKEKQ | 0.692 ± 0.019 |

| Sequence | protein stability index |
| --- | --- |
| VLSDFSFPFFVL | 0.669 ± 0.017 |
| RRKRKQQNTTTE | 0.685 ± 0.016 |
| EKLEGRKIIKKK | 0.6927 ± 0.006 |
| GFALRESWFIFV | 0.644 ± 0.018 |
| REAGGSQVKRRL | 0.671 ± 0.12 |
| DLPDGRRFIVIG | 0.682 ± 0.08 |
| GATGGACGGWAG | 0.67249 ± 0.00044 |
| CLLAPSSLASPI | 0.66 ± 0.043 |
| PPPLSLLPPCSP | 0.678 ± 0.12 |
| SSLPPPRLFLLP | 0.697 ± 0.085 |
| VFLLSDVCGLGL | 0.583 ± 0.2 |
| AHTPGTHLGRKT | 0.71 ± 0.0082 |
| EFVGSCPLCNTF | 0.622 ± 0.015 |
| PLPPPPLAPPPP | 0.687 ± 0.014 |
| VCAGGVFRLARG | 0.66 ± 0.12 |
| ACGSRGGQTERP | 0.7143 ± 0.0066 |
| WDGWWGGAGVGE | 0.695 ± 0.077 |
| PPPLPPPTPLPT | 0.681 ± 0.12 |
| LPPLPPIAPPPP | 0.8126 ± 0.0041 |
| VIAGSWVAGVSV | 0.655 ± 0.011 |
| GRRVVRGWLVRR | 0.683 ± 0.095 |
| KRKKQGNKKQEE | 0.6893 ± 0.0017 |
| DPLLYLCLGSQC | 0.676 ± 0.017 |
| SLFYSPSSVFSF | 0.866 ± 0.13 |
| PNRPPLQFFPPP | 0.697 ± 0.05 |

| Sequence | protein stability index |
| --- | --- |
| GCRCSSGLGGFW | 0.649 ± 0.11 |
| SPPPPPLPPPHP | 0.6564 ± 0.0035 |
| PPALPPTGHPPF | 0.709 ± 0.013 |
| HRPSPSPSPPLP | 0.752 ± 0.056 |
| PSRPPGHPAPKP | 0.761 ± 0.063 |
| PPPPFRPSPPLP | 0.664 ± 0.0084 |
| SSPNPPRELGPY | 0.607 ± 0.055 |
| FPFDMTSTEMSL | 0.639 ± 0.096 |
| VGGGRRGGVGEG | 0.652 ± 0.021 |
| DFMGLRCSARKA | 0.693 ± 0.016 |
| AGTIRTTPLTAL | 0.643 ± 0.033 |
| CEHGGWYVGFCS | 0.7 ± 0.008 |
| IQAVHYTARVPN | 0.664 ± 0.072 |
| LPCPSFPSLPFL | 0.646 ± 0.1 |
| RQLPMHLTSPGT | 0.66 ± 0.021 |
| VPPPRLCPERPH | 0.719 ± 0.063 |
| GKRGKKVKKKSK | 0.621 ± 0.016 |
| ALVRVVRGIGFC | 0.697 ± 0.062 |
| RGHKATNICHSV | 0.721 ± 0.042 |
| PPHSHCPSAPHN | 0.643 ± 0.082 |
| RPVQRLVPLTPR | 0.706 ± 0.054 |
| FYFLFVFICLRV | 0.6642 ± 0.0062 |
| KMSRKIKIRERG | 0.658 ± 0.016 |
| PSHPLSLFLLFL | 0.58 ± 0.007 |
| DQAWYFVRLAGD | 0.766 ± 0.2 |

| Sequence | protein stability index |
| --- | --- |
| EERENKKKLDQT | 0.659 ± 0.029 |
| PLAPSPPLPAFC | 0.693 ± 0.02 |
| PGTRNATPRRQP | 0.707 ± 0.04 |
| WAKRERRNEGRR | 0.71 ± 0.011 |
| LYRFVSVLSDVH | 0.577 ± 0.012 |
| PSPPTALCPPPL | 0.68 ± 0.15 |
| PFAHPPRLPLFP | 0.742 ± 0.096 |
| TILLNWSQVHME | 0.7 ± 0.016 |
| TGLSFIRCLDFK | 0.688 ± 0.055 |
| GSDDLVSVSSAE | 0.708 ± 0.028 |
| VSGFVAALRIFL | 0.657 ± 0.025 |
| VPCILLFSHFKH | 0.619 ± 0.042 |
| ALFLFGSDRFFV | 0.747 ± 0.026 |
| NRQNNYANDIQK | 0.713 ± 0.045 |
| CFLPLFFFRFVE | 0.609 ± 0.027 |
| LVLLTRSASLLG | 0.691 ± 0.094 |
| PSSPPSLPSPLP | 0.691 ± 0.065 |
| WVLGGVAPPAVL | 0.694 ± 0.048 |
| SRPPAPPPLPAP | 0.726 ± 0.025 |
| ELEIRSLCPDVV | 0.694 ± 0.024 |
| VLDLVPDFSNGG | 0.65 ± 0.036 |
| SYGIETRLKGKK | 0.63 ± 0.082 |
| RFAGCFSFFRAA | 0.683 ± 0.035 |
